From US20140087995A1 (published 2014)
Numbered stars: 1 amine (or outer) side, 2 acyl side, 3 side chain; on linkers, the order of the positions; unused ones are H or OH. Bridge positions count the residues as written; N and C are the ends. Side chains are listed from the residue outwards. Ends that are not written are not given here. * marks the point of attachment. C20 diacid = O=C(O)CCCCCCCCCCCCCCCCCCC(=O)*; γGlu = O=C(O)[C@H](CCC(=O)[*:2])N[*:1]; AEEA = NCCOCCOCC(=O)O

B1: N^ε1-[(4S)-4-carboxy-4-[[(4S)-4-carboxy-4-(19-carboxynonadecanoylamino)butanoyl]amino]butanoyl]-[Glu14,Arg17,Pro21,Pro27,His34,Glu35]-h-amylin (peptide)
peptide: K([γGlu-γGlu-C20 diacid])CNTATCATQRLAEFLRHSSPNFGAIPSSTNVGHETY-NH2
modifications: disulfide 2-7; N-terminus assumed
SMILES: CC[C@H](C)[C@H](NC(=O)[C@H](C)NC(=O)CNC(=O)[C@H](Cc1ccccc1)NC(=O)[C@H](CC(N)=O)NC(=O)[C@@H]1CCCN1C(=O)[C@H](CO)NC(=O)[C@H](CO)NC(=O)[C@H](Cc1c[nH]cn1)NC(=O)[C@H](CCCNC(=N)N)NC(=O)[C@H](CC(C)C)NC(=O)[C@H](Cc1ccccc1)NC(=O)[C@H](CCC(=O)O)NC(=O)[C@H](C)NC(=O)[C@H](CC(C)C)NC(=O)[C@H](CCCNC(=N)N)NC(=O)[C@H](CCC(N)=O)NC(=O)[C@@H](NC(=O)[C@H](C)NC(=O)[C@@H]1CSSC[C@H](NC(=O)[C@@H](N)CCCCNC(=O)CC[C@H](NC(=O)CC[C@H](NC(=O)CCCCCCCCCCCCCCCCCCC(=O)O)C(=O)O)C(=O)O)C(=O)N[C@@H](CC(N)=O)C(=O)N[C@@H]([C@@H](C)O)C(=O)N[C@@H](C)C(=O)N[C@@H]([C@@H](C)O)C(=O)N1)[C@@H](C)O)C(=O)N1CCC[C@H]1C(=O)N[C@@H](CO)C(=O)N[C@@H](CO)C(=O)N[C@H](C(=O)N[C@@H](CC(N)=O)C(=O)N[C@H](C(=O)NCC(=O)N[C@@H](Cc1c[nH]cn1)C(=O)N[C@@H](CCC(=O)O)C(=O)N[C@H](C(=O)N[C@@H](Cc1ccc(O)cc1)C(N)=O)[C@@H](C)O)C(C)C)[C@@H](C)O
B2: N^ε1-[(4S)-4-carboxy-4-[[(4S)-4-carboxy-4-(19-carboxynonadecanoylamino)butanoyl]amino]butanoyl]-[Glu14,Arg17,Pro21,Pro27,Pro34,Arg35]-h-amylin (peptide)
peptide: K([γGlu-γGlu-C20 diacid])CNTATCATQRLAEFLRHSSPNFGAIPSSTNVGPRTY-NH2
modifications: disulfide 2-7; N-terminus assumed
SMILES: CC[C@H](C)[C@H](NC(=O)[C@H](C)NC(=O)CNC(=O)[C@H](Cc1ccccc1)NC(=O)[C@H](CC(N)=O)NC(=O)[C@@H]1CCCN1C(=O)[C@H](CO)NC(=O)[C@H](CO)NC(=O)[C@H](Cc1c[nH]cn1)NC(=O)[C@H](CCCNC(=N)N)NC(=O)[C@H](CC(C)C)NC(=O)[C@H](Cc1ccccc1)NC(=O)[C@H](CCC(=O)O)NC(=O)[C@H](C)NC(=O)[C@H](CC(C)C)NC(=O)[C@H](CCCNC(=N)N)NC(=O)[C@H](CCC(N)=O)NC(=O)[C@@H](NC(=O)[C@H](C)NC(=O)[C@@H]1CSSC[C@H](NC(=O)[C@@H](N)CCCCNC(=O)CC[C@H](NC(=O)CC[C@H](NC(=O)CCCCCCCCCCCCCCCCCCC(=O)O)C(=O)O)C(=O)O)C(=O)N[C@@H](CC(N)=O)C(=O)N[C@@H]([C@@H](C)O)C(=O)N[C@@H](C)C(=O)N[C@@H]([C@@H](C)O)C(=O)N1)[C@@H](C)O)C(=O)N1CCC[C@H]1C(=O)N[C@@H](CO)C(=O)N[C@@H](CO)C(=O)N[C@H](C(=O)N[C@@H](CC(N)=O)C(=O)N[C@H](C(=O)NCC(=O)N1CCC[C@H]1C(=O)N[C@@H](CCCNC(=N)N)C(=O)N[C@H](C(=O)N[C@@H](Cc1ccc(O)cc1)C(N)=O)[C@@H](C)O)C(C)C)[C@@H](C)O
notes: also called compound 110
B3: N^ε1-[(4S)-4-carboxy-4-[[(4S)-4-carboxy-4-(19-carboxynonadecanoylamino)butanoyl]amino]butanoyl]-[His14,Arg17,Pro21,Pro27]-h-amylin (peptide)
peptide: K([γGlu-γGlu-C20 diacid])CNTATCATQRLAHFLRHSSPNFGAIPSSTNVGSNTY-NH2
modifications: disulfide 2-7; N-terminus assumed
SMILES: CC[C@H](C)[C@H](NC(=O)[C@H](C)NC(=O)CNC(=O)[C@H](Cc1ccccc1)NC(=O)[C@H](CC(N)=O)NC(=O)[C@@H]1CCCN1C(=O)[C@H](CO)NC(=O)[C@H](CO)NC(=O)[C@H](Cc1c[nH]cn1)NC(=O)[C@H](CCCNC(=N)N)NC(=O)[C@H](CC(C)C)NC(=O)[C@H](Cc1ccccc1)NC(=O)[C@H](Cc1c[nH]cn1)NC(=O)[C@H](C)NC(=O)[C@H](CC(C)C)NC(=O)[C@H](CCCNC(=N)N)NC(=O)[C@H](CCC(N)=O)NC(=O)[C@@H](NC(=O)[C@H](C)NC(=O)[C@@H]1CSSC[C@H](NC(=O)[C@@H](N)CCCCNC(=O)CC[C@H](NC(=O)CC[C@H](NC(=O)CCCCCCCCCCCCCCCCCCC(=O)O)C(=O)O)C(=O)O)C(=O)N[C@@H](CC(N)=O)C(=O)N[C@@H]([C@@H](C)O)C(=O)N[C@@H](C)C(=O)N[C@@H]([C@@H](C)O)C(=O)N1)[C@@H](C)O)C(=O)N1CCC[C@H]1C(=O)N[C@@H](CO)C(=O)N[C@@H](CO)C(=O)N[C@H](C(=O)N[C@@H](CC(N)=O)C(=O)N[C@H](C(=O)NCC(=O)N[C@@H](CO)C(=O)N[C@@H](CC(N)=O)C(=O)N[C@H](C(=O)N[C@@H](Cc1ccc(O)cc1)C(N)=O)[C@@H](C)O)C(C)C)[C@@H](C)O
notes: also called compound 92
B4: N^ε1-[(4S)-4-carboxy-4-(19-carboxynonadecanoylamino)butanoyl]-[Arg17,Pro21,Pro27,His34]-h-amylin (peptide)
peptide: K([γGlu-C20 diacid])CNTATCATQRLANFLRHSSPNFGAIPSSTNVGHNTY-NH2
modifications: disulfide 2-7; N-terminus assumed
SMILES: CC[C@H](C)[C@H](NC(=O)[C@H](C)NC(=O)CNC(=O)[C@H](Cc1ccccc1)NC(=O)[C@H](CC(N)=O)NC(=O)[C@@H]1CCCN1C(=O)[C@H](CO)NC(=O)[C@H](CO)NC(=O)[C@H](Cc1c[nH]cn1)NC(=O)[C@H](CCCNC(=N)N)NC(=O)[C@H](CC(C)C)NC(=O)[C@H](Cc1ccccc1)NC(=O)[C@H](CC(N)=O)NC(=O)[C@H](C)NC(=O)[C@H](CC(C)C)NC(=O)[C@H](CCCNC(=N)N)NC(=O)[C@H](CCC(N)=O)NC(=O)[C@@H](NC(=O)[C@H](C)NC(=O)[C@@H]1CSSC[C@H](NC(=O)[C@@H](N)CCCCNC(=O)CC[C@H](NC(=O)CCCCCCCCCCCCCCCCCCC(=O)O)C(=O)O)C(=O)N[C@@H](CC(N)=O)C(=O)N[C@@H]([C@@H](C)O)C(=O)N[C@@H](C)C(=O)N[C@@H]([C@@H](C)O)C(=O)N1)[C@@H](C)O)C(=O)N1CCC[C@H]1C(=O)N[C@@H](CO)C(=O)N[C@@H](CO)C(=O)N[C@H](C(=O)N[C@@H](CC(N)=O)C(=O)N[C@H](C(=O)NCC(=O)N[C@@H](Cc1c[nH]cn1)C(=O)N[C@@H](CC(N)=O)C(=O)N[C@H](C(=O)N[C@@H](Cc1ccc(O)cc1)C(N)=O)[C@@H](C)O)C(C)C)[C@@H](C)O
notes: also called compound 77
B5: N^ε1-[(4S)-4-carboxy-4-[[(4S)-4-carboxy-4-(19-carboxynonadecanoylamino)butanoyl]amino]butanoyl]-[Arg17,Pro21,Pro27,His34]-h-amylin (peptide)
peptide: K([γGlu-γGlu-C20 diacid])CNTATCATQRLANFLRHSSPNFGAIPSSTNVGHNTY-NH2
modifications: disulfide 2-7; N-terminus assumed
SMILES: CC[C@H](C)[C@H](NC(=O)[C@H](C)NC(=O)CNC(=O)[C@H](Cc1ccccc1)NC(=O)[C@H](CC(N)=O)NC(=O)[C@@H]1CCCN1C(=O)[C@H](CO)NC(=O)[C@H](CO)NC(=O)[C@H](Cc1c[nH]cn1)NC(=O)[C@H](CCCNC(=N)N)NC(=O)[C@H](CC(C)C)NC(=O)[C@H](Cc1ccccc1)NC(=O)[C@H](CC(N)=O)NC(=O)[C@H](C)NC(=O)[C@H](CC(C)C)NC(=O)[C@H](CCCNC(=N)N)NC(=O)[C@H](CCC(N)=O)NC(=O)[C@@H](NC(=O)[C@H](C)NC(=O)[C@@H]1CSSC[C@H](NC(=O)[C@@H](N)CCCCNC(=O)CC[C@H](NC(=O)CC[C@H](NC(=O)CCCCCCCCCCCCCCCCCCC(=O)O)C(=O)O)C(=O)O)C(=O)N[C@@H](CC(N)=O)C(=O)N[C@@H]([C@@H](C)O)C(=O)N[C@@H](C)C(=O)N[C@@H]([C@@H](C)O)C(=O)N1)[C@@H](C)O)C(=O)N1CCC[C@H]1C(=O)N[C@@H](CO)C(=O)N[C@@H](CO)C(=O)N[C@H](C(=O)N[C@@H](CC(N)=O)C(=O)N[C@H](C(=O)NCC(=O)N[C@@H](Cc1c[nH]cn1)C(=O)N[C@@H](CC(N)=O)C(=O)N[C@H](C(=O)N[C@@H](Cc1ccc(O)cc1)C(N)=O)[C@@H](C)O)C(C)C)[C@@H](C)O
notes: also called compound 86
B6: N^ε1-[2-[2-[2-(19-carboxynonadecanoylamino)ethoxy]ethoxy]acetyl]-[Arg17,Pro21,Pro27,His34]-h-amylin (peptide)
peptide: K([AEEA-C20 diacid])CNTATCATQRLANFLRHSSPNFGAIPSSTNVGHNTY-NH2
modifications: disulfide 2-7; N-terminus assumed
SMILES: CC[C@H](C)[C@H](NC(=O)[C@H](C)NC(=O)CNC(=O)[C@H](Cc1ccccc1)NC(=O)[C@H](CC(N)=O)NC(=O)[C@@H]1CCCN1C(=O)[C@H](CO)NC(=O)[C@H](CO)NC(=O)[C@H](Cc1c[nH]cn1)NC(=O)[C@H](CCCNC(=N)N)NC(=O)[C@H](CC(C)C)NC(=O)[C@H](Cc1ccccc1)NC(=O)[C@H](CC(N)=O)NC(=O)[C@H](C)NC(=O)[C@H](CC(C)C)NC(=O)[C@H](CCCNC(=N)N)NC(=O)[C@H](CCC(N)=O)NC(=O)[C@@H](NC(=O)[C@H](C)NC(=O)[C@@H]1CSSC[C@H](NC(=O)[C@@H](N)CCCCNC(=O)COCCOCCNC(=O)CCCCCCCCCCCCCCCCCCC(=O)O)C(=O)N[C@@H](CC(N)=O)C(=O)N[C@@H]([C@@H](C)O)C(=O)N[C@@H](C)C(=O)N[C@@H]([C@@H](C)O)C(=O)N1)[C@@H](C)O)C(=O)N1CCC[C@H]1C(=O)N[C@@H](CO)C(=O)N[C@@H](CO)C(=O)N[C@H](C(=O)N[C@@H](CC(N)=O)C(=O)N[C@H](C(=O)NCC(=O)N[C@@H](Cc1c[nH]cn1)C(=O)N[C@@H](CC(N)=O)C(=O)N[C@H](C(=O)N[C@@H](Cc1ccc(O)cc1)C(N)=O)[C@@H](C)O)C(C)C)[C@@H](C)O
notes: also called compound 91

Each binder was assayed against T1, human amylin receptor (amylin 3(a) receptor: human calcitonin receptor coexpressed with RAMP-3) (human, UniProt P30988 25-474; O60896 24-148) (assay: cell-based or functional assay).
T1 sequence (looked up) 1: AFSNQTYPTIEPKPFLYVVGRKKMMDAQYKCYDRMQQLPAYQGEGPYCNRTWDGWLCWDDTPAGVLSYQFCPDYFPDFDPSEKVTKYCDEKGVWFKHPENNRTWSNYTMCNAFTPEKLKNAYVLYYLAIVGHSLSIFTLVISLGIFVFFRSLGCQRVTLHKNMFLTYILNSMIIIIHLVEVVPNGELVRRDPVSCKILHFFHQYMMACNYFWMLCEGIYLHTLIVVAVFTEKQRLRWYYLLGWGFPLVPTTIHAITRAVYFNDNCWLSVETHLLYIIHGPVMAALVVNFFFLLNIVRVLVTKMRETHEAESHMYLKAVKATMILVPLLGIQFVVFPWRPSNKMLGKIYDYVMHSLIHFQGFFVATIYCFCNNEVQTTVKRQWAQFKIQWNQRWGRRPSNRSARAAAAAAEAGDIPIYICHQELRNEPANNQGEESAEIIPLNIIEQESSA
T1 sequence (looked up) 2: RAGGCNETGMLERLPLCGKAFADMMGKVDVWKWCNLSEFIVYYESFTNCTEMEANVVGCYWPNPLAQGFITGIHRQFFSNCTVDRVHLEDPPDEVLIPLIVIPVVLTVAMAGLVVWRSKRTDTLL

| Binder | hAmylin-R funct. EC50 (pM) |
| --- | --- |
| B1 | 445 pM |
| B2 | 278 pM |
| K([γGlu-γGlu-C20 diacid])CNTATCATQRLAEFLRHSSPNFGAIPSSTNVGPHTY-NH2 (disulfide 2-7 (inferred)) | 172 pM |
| B3 | 85 pM |
| B4 | 145 pM |
| B5 | 298 pM |
| B6 | 40 pM |

These binders were tested against T2, human calcitonin receptor (human, UniProt P30988 25-474) (assay: cell-based or functional assay).
T2 sequence (looked up): T1 sequence (looked up) 1

| Binder | Ratio hCT/hAmylin funct. | hCTR funct. EC50 (pM) |
| --- | --- | --- |
| B1 | 15.8 | 7050 pM |
| B2 | 29.3 | 8160 pM |
| K([γGlu-γGlu-C20 diacid])CNTATCATQRLAEFLRHSSPNFGAIPSSTNVGPHTY-NH2 (disulfide 2-7 (inferred)) | 16.4 | 2830 pM |
| B3 | 28 | 2380 pM |
| B4 | – | 5400 pM |
| B5 | – | 19200 pM |
| B6 | 36.9 | 1480 pM |
